Measured values as given in article PMC10922795.

Assays:
Test in all cases: SPR
[1] = target: Igh^g2A10 mutant Fab J2/L114F (mouse)
[2] = target: Igh^g2A10 mutant Fab J2/L114F with LC_Q106K (mouse)
[3] = target: Igh^g2A10 mutant Fab J1/L114F with LC_Q106R (mouse)

recombinant PfCSP (from UniProt Q7K740 19-374) (natural protein)
fold increase in affinity over the J2 UCA [1]: 1.49 fold
fold increase in affinity over J2/L114F [2]: 65 fold
fold increase in affinity over J1/L114F [3]: 18.2 fold
